Measured values reported in patent US20210380678A1 (published 2021).
Values belong to the binder of their own block, whether it stands above or below them.

Tests used:
[1] = biological target: T1, human ASGR2 extracellular domain (hASGR2 ECD) (UniProt P07307 86-311, biotinylated (His/Avi tag)); experiment: BLI
T1 chain: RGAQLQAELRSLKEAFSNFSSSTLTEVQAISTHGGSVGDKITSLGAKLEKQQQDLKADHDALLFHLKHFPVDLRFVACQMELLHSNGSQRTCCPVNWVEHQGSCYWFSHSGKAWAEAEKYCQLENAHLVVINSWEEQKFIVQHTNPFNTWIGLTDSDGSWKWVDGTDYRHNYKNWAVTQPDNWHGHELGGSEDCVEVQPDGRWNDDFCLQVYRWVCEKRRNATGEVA

[2] = biological target: T2, human ASGR1 extracellular domain (hASGR1 ECD) (UniProt P07306 62-291, biotinylated (His-Avi tag)); experiment: BLI; steady-state fit
T2 chain: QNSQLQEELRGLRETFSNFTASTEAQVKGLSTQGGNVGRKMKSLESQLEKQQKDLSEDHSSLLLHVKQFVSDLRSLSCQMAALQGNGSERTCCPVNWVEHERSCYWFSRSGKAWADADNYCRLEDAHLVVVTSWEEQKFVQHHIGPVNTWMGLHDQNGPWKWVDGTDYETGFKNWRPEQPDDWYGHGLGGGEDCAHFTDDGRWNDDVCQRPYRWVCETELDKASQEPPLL

[3] = biological target: T3, human ZNRF3 extracellular domain (hZNRF3 ECD) (UniProt Q9ULT6 56-219, biotinylated (His-Avi tag)); experiment: BLI steady-state
T3 chain: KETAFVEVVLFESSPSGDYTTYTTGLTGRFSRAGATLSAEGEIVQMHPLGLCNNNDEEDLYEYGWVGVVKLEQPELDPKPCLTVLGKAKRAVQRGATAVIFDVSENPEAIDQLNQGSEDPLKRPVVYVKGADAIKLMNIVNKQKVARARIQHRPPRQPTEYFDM

[4] = biological target: T4, human RNF43 extracellular domain (hRNF43 ECD) (UniProt Q68DV7 44-197, biotinylated (His-Avi tag)); experiment: BLI steady-state
T4 chain: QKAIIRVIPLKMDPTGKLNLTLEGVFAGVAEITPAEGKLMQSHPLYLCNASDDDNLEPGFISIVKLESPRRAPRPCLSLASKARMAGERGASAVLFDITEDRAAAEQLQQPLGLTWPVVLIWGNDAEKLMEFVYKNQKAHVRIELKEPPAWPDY

[5] = biological target: T5, Fc portion of human IgG1-fused LGR5-ECD (R&D systems) (UniProt O75473 22-557); experiment: BLI steady-state
T5 chain: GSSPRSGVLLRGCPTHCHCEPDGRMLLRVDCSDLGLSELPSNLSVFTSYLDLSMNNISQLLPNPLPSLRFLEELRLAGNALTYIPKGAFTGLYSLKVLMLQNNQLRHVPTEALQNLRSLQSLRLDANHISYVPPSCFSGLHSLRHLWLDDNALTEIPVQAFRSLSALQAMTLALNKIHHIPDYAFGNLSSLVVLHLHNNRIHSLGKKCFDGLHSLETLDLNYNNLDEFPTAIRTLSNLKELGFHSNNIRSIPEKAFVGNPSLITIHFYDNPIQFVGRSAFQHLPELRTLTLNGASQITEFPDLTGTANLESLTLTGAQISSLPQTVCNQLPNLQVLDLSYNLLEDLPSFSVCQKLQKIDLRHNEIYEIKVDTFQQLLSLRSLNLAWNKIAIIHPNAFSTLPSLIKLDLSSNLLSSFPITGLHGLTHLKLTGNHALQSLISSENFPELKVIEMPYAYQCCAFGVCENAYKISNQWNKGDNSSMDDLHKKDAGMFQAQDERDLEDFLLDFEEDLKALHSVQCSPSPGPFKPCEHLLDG

[6] = biological target: T4, human RNF43 extracellular domain …; experiment: BLI; steady-state fit
[7] = biological target: T3, human ZNRF3 extracellular domain …; experiment: BLI; steady-state fit
[8] = biological target: T2, human ASGR1 extracellular domain …; experiment: BLI
[9] = biological target: T2, human ASGR1 extracellular domain …; experiment: BLI
[10] = biological target: T6, mouse ASGR1 extracellular domain (mASGR1 ECD) (biotinylated (His-Avi tag)); experiment: BLI
T6 chain: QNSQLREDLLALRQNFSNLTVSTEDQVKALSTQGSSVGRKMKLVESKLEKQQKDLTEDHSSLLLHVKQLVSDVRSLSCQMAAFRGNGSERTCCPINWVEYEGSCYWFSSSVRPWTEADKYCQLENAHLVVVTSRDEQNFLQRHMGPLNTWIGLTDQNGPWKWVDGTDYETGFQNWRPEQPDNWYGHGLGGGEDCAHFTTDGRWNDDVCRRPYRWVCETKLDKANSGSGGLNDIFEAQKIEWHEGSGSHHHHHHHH

B2: Abv-3D11 Fab (Fab, V domains shown)
VH: EVQLVESGGGLVQPKGSLKLSCAASGFSFNTYAMNWVRQAPGKGLEWVARIRSKSNNYATYYADSVKDRFTISRDDSESMLYLQMNNLKTEDTAMYYCVRPRYDYWYFDVWGTGTTVTVSS
VL: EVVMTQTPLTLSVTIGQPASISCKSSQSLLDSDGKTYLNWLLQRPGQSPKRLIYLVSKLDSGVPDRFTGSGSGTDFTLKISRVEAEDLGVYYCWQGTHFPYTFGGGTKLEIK
Kd [1]: 110 nM

B3: 024S-E03 Fab (Fab, V domains shown)
VH: QVQLQQSGPGLVKPSQTLSLTCAISGASVSSNSAAWNWIRQSPSRGLEWLGRTYYRSKWYNDYAVSVKSRITINPDTSKNQFSLQLNSVTPGDTAVYYCARWNHEEHYFDYWGQGTLVTVSS
VL: DVVMTQSPATLSFSPGERATLSCRASQSVGSYLAWYQQRPGQAPRPLIYDATNRATGIPTRFSGSGSGTDFTLTISSLEPEDFATYYCQHRRTFGRGTKLEIK
Kd [2]: 180 nM

B4: 024S-A04 Fab (Fab, V domains shown)
VH: QVQLQQSGPGLVKPSQTLSLTCAISGDSVSSNSVAWNWMRQSPSRGLEWLGRTYYRSKWYYDYAVSVKSRITINPDTSKNQFSLQLNSVTPEDTAVYYCASWTRGAFDIWGQGTMVTVSS
VL: DIQLTQSPATLSFSPGERATLSCRASQSVGSYLAWYQQRPGQAPRPLIYDATNRATGIPTRFSGSGSGTDFTLTISSLEPEDFATYYCQHRRTFGRGTKLEIK
Kd [2]: 100 nM

B5: 024S-D03 Fab (Fab, V domains shown)
VH: QVQLQQSGPGLVKPSQTLSLTCAISGDSVSSNSAAWNWMRQSPSRGLEWLGRTYYRSKWYNDYAVSVKSRMTINPDTSRNQFSLQLNSVTLEDTAVYYCARWNHEEHYFDYWGQGTLVTVSS
VL: EIVLTQSPATLSFSPGERATLSCRASQSVGSYLAWYQQRPGQAPRPLIYDATNRATGIPTRFSGSGSGTDFTLTISSLEPEDFATYYCQHRRTFGRGTKLEIK
Kd [2]: 130 nM

B7: αGFP-RSPO2-WT (anti-GFP, RSPO2 wild type) (other)
chain: QVQLVESGGGLVQPGGSLRLSCAASGFTFSRYGMHWVRQAPGKGLEWVSGISSIGSNTYYADSVKGRFTISRDNSKNTLYLQMNSLRAEDTAVYYCARWYKTYIDVWGQGTLVTVSSGGGGSGGGGSGGGGSDIELTQPPSVSVAPGQTARISCSGDNLGKKYVYWYQQKPGQAPVLVIYGDDERPSGIPERFSGSNSGNTATLTISGTQAEDEADYYCASYDSSHILIVFGGGTKLTVLGSGGSNPICKGCLSCSKDNGCSRCQQKLFFFLRREGMRQYGECLHSCPSGYYGHRAPDMNRCARCRIENCDSCFSKDFCTKCKVGFYLHRGRCFDECPDGFAPLEETMECVEGGDYKDDDDKGSHHHHHHHH
Kd [3]: 160 nM
Kd [4]: 42 nM

B10: LP1-2I13 Fab (Fab, V domains shown)
VH: EVQLVESGGGLVKPGGSRKLSCAASGFTFSDYGMHWVRQAPEKGLEWVAYISSGSSTIYYADTVKGRFTISRDNAKNTLFLQMTSLRSEDTAMYYCSRKGGFGDYEKSYAMDYWGQGTSVTVSS
VL: DIQMTQSPASLSASVGETVTITCRASENIYSYLVWYQQKQGKSPQLLVYNAKTLAEGVPSRFSGSGSGTQFSLKINSLQPEDFGSYYCQHHYGTWTFGGGIKLEIK
Kd [8]: 7.3 nM

B12: anti-ASGR1 Fab (Fab, V domains shown)
VH: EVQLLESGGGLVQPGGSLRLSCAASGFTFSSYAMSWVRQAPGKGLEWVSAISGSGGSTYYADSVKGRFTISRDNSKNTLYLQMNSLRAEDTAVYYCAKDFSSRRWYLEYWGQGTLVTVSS
VL: DIELTQDPAVSVALGQTVRITCQGDSLRSYYASWYQQKPGQAPVLVIYGKNNRPSGIPDRFSGSSSGNTASLTITGAQAEDEADYYCNSLERIGYLSYVFGGGTKLTVLG
Kd [9]: 349 nM
Kd [10]: 213 nM

Now from value to binder:

Kd [1]: 230 nM
B1: Abv-10B8 Fab (Fab, V domains shown)
VH: DVKLVESGEGLVKPGGSLKLSCAASGFTFSSYAMSWVRQTPEKRLEWVAYISSGGDYIYYVDTVKGRFTISRDNARNTLYLQMSSLKSEDTAVYYCTREGTGGMDYWGQGTSVTVSS
VL: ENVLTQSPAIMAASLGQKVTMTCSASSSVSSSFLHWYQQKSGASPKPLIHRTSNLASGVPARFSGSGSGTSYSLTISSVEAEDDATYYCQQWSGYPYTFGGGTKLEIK

Kd [3]: 170 nM
Kd [4]: 31 nM
B6: αGFP-RSPO2-RA (anti-GFP, RSPO2 (F105R/F109A)) (other)
chain: QVQLVESGGGLVQPGGSLRLSCAASGFTFSRYGMHWVRQAPGKGLEWVSGISSIGSNTYYADSVKGRFTISRDNSKNTLYLQMNSLRAEDTAVYYCARWYKTYIDVWGQGTLVTVSSGGGGSGGGGSGGGGSDIELTQPPSVSVAPGQTARISCSGDNLGKKYVYWYQQKPGQAPVLVIYGDDERPSGIPERFSGSNSGNTATLTISGTQAEDEADYYCASYDSSHILIVFGGGTKLTVLGSGGSNPICKGCLSCSKDNGCSRCQQKLFFFLRREGMRQYGECLHSCPSGYYGHRAPDMNRCARCRIENCDSCRSKDACTKCKVGFYLHRGRCFDECPDGFAPLEETMECVEGGDYKDDDDKGSHHHHHHHH

Kd [5]: 5 nM
Kd [6]: 44 nM
Kd [7]: 72 nM
B8: αTFR1-RSPO2-WT (anti-TFR1, RSPO2 wild type) (other)
chain: QVQLQQSGPELVRPGVSVKISCKGSGYTFTDYAMHWVKQSHAKSLEWIGGISTYFGRTNYNQKFKGRATMTVDKSSSTAYMELARLTSEDSALYYCARGLSGNYVMDYWGQGTSVTVSSGGGGSGGGGSGGGGSDIVLFQSPASLAVSLGQRATISCRASESVDDYGNSFMHWYQQKPGQPPKLLIYRASNLESGIPARFSGSGSRTDFTLTINPVEADDVATYYCQQSNEAPPTFGGGTKLEIRGSGGSNPICKGCLSCSKDNGCSRCQQKLFFFLRREGMRQYGECLHSCPSGYYGHRAPDMNRCARCRIENCDSCFSKDFCTKCKVGFYLHRGRCFDECPDGFAPLEETMECVEGGDYKDDDDKGSHHHHHHHH

Kd [6]: 45 nM
Kd [7]: 75 nM
B9: αTFR1-RSPO2-RA (anti-TFR1, RSPO2 (F105R/F109A)) (other)
chain: QVQLQQSGPELVRPGVSVKISCKGSGYTFTDYAMHWVKQSHAKSLEWIGGISTYFGRTNYNQKFKGRATMTVDKSSSTAYMELARLTSEDSALYYCARGLSGNYVMDYWGQGTSVTVSSGGGGSGGGGSGGGGSDIVLFQSPASLAVSLGQRATISCRASESVDDYGNSFMHWYQQKPGQPPKLLIYRASNLESGIPARFSGSGSRTDFTLTINPVEADDVATYYCQQSNEAPPTFGGGTKLEIRGSGGSNPICKGCLSCSKDNGCSRCQQKLFFFLRREGMRQYGECLHSCPSGYYGHRAPDMNRCARCRIENCDSCRSKDACTKCKVGFYLHRGRCFDECPDGFAPLEETMECVEGGDYKDDDDKGSHHHHHHHH

Kd [8]: 0.17 nM
B11: LP1-8M24 Fab (Fab, V domains shown)
VH: QVQLQQSGAELARPGASVKLSCKASGYTFTNYGINWVKQRTGQGLEWIGEIFPRSDNTFYNEKFKGKATLTADKSSTTAYMELRSLTSEDSAVYFCARKGRDYGTSHYFDYWGQGTTLTVSS
VL: DIQMTQSPASLSVSVGETVTITCRISENIYSNLAWYQQKQGKSPHLLVYAAINLADGVPSRFSGSGSGTQFSLKINSLQSEDFGSYYCQHFWGTPFTFGSGTKLEIK
